Source: article PMC4801485 (Biochemistry, 2015)

Key:
Assay in all cases: NMR line shape analysis
[1] = target: cyclophilin domain of human Cyclophilin C (residues 25-212) (human, UniProt P45877 25-212)
human Cyclophilin A = human Cyclophilin A (human, UniProt P62937 1-165)
[2] = target: cyclophilin domain of human Cyclophilin B (residues 39-216) (human, UniProt P23284 39-216)
Sequence of cyclophilin domain of human Cyclophilin B (residues 39-216) (P23284 39-216): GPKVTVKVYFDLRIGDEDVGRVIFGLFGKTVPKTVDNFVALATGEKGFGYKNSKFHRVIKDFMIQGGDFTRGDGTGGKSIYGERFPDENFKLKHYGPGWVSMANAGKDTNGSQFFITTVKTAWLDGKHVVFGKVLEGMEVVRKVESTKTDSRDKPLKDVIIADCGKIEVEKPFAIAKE

Sequence of cyclophilin domain of human Cyclophilin C (residues 25-212) (P45877 25-212): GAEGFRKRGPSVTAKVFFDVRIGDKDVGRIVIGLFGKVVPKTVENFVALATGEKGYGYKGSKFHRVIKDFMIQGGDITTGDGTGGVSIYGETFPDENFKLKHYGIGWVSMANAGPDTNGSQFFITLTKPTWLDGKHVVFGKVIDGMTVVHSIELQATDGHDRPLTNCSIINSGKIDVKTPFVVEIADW
Sequence of human Cyclophilin A (P62937 whole entry, the tested form may be a part): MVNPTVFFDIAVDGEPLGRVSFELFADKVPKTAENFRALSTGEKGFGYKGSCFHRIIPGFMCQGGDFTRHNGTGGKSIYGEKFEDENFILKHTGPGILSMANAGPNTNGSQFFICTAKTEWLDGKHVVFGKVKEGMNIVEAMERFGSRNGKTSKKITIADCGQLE

## GSFGPDLRAGD [peptide substrate GSFGPDLRAGD]
[1]
  koff of the cis isomer (kCD): 260 s⁻¹
  koff of the trans isomer (kBA): 1620 s⁻¹
  kon of the cis isomer (kDC): 7.9e+06 M⁻¹ s⁻¹
  kon of the trans isomer (kAB): 4.2e+06 M⁻¹ s⁻¹
Human Cyclophilin A
  koff of the cis isomer (kCD): 170 s⁻¹
  koff of the trans isomer (kBA): 550 s⁻¹
  kon of the cis isomer (kDC): 1e+07 M⁻¹ s⁻¹
  kon of the trans isomer (kAB): 3.2e+06 M⁻¹ s⁻¹
[2]
  koff of the cis isomer (kCD): 200 s⁻¹
  koff of the trans isomer (kBA): 960 s⁻¹
  kon of the cis isomer (kDC): 4.9e+06 M⁻¹ s⁻¹
  kon of the trans isomer (kAB): 2.1e+06 M⁻¹ s⁻¹
